Positions count from the first letter of the chain named.
T1: Human BCMA (human, UniProt Q02223 1-54, limits assumed)
T1 construct: Soluble analyte in SPR; construct not described; also called huBCMA; B-cell maturation antigen
T1 sequence (looked up): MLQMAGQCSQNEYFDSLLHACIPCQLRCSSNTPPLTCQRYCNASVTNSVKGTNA

B1: L1.GDF/L3.KW/H3.AL (antibody, V domains shown)
VH: EVQLLESGGGLVQPGGSLRLSCAASGFTFGSYAMTWVRQAPGKGLEWVSAISGSGGNTFYADSVKGRFTISRDNSKNTLYLQMNSLRAEDTAVYYCARVSPIAALMDYWGQGTLVTVSS
VL: EIVLTQSPGTLSLSPGERATLSCRASQSVGDFYLAWYQQKPGQAPRLLIYGASSRATGIPDRFSGSGSGTDFTLTISRLEPEDFAVYYCKHYGWPPSFTFGQGTKVEIK
notes: IgG
B2: L1.GDF/L3.KW/H3.AP (antibody, V domains shown)
VH: B1 VH with L105P
VL: B1 VL
notes: IgG
B3: L1.GDF/L3.KW/H3.AQ (antibody, V domains shown)
VH: B1 VH with L105Q
VL: B1 VL
notes: IgG
B4: L1.GDF/L3.NY/H3.AL (antibody, V domains shown)
VH: B1 VH
VL: B1 VL with K90Q, G93N, W94Y
notes: IgG
B5: L1.GDF/L3.NY/H3.AP (antibody, V domains shown)
VH: B1 VH with L105P
VL: B1 VL with K90Q, G93N, W94Y
notes: IgG
B6: L1.GDF/L3.NY/H3.AQ (antibody, V domains shown)
VH: B1 VH with L105Q
VL: B1 VL with K90Q, G93N, W94Y
notes: IgG
B7: L1.GDF/L3.NY/P6E01 (antibody, V domains shown)
VH: B1 VH with A104S, L105G
VL: B1 VL with K90Q, G93N, W94Y
notes: IgG
B8: L1.GDF/L3.PY/H3.AQ (antibody, V domains shown)
VH: B1 VH with L105Q
VL: B1 VL with K90Q, G93P, W94Y
notes: IgG
B9: L1.LGF/L3.KW/H3.AL (antibody, V domains shown)
VH: B1 VH
VL: B1 VL with V29L, D31S
notes: IgG
B10: L1.LGF/L3.KW/H3.AP (antibody, V domains shown)
VH: B1 VH with L105P
VL: B1 VL with V29L, D31S
notes: IgG
B11: L1.LGF/L3.KW/H3.AQ (antibody, V domains shown)
VH: B1 VH with L105Q
VL: B1 VL with V29L, D31S
notes: IgG
B12: L1.LGF/L3.KW/P6E01 (antibody, V domains shown)
VH: B1 VH with A104S, L105G
VL: B1 VL with V29L, D31S
notes: IgG
B13: L1.LGF/L3.NY/H3.AL (antibody, V domains shown)
VH: B1 VH
VL: B1 VL with V29L, D31S, K90Q, G93N, W94Y
notes: IgG
B14: L1.LGF/L3.NY/H3.AP (antibody, V domains shown)
VH: B1 VH with L105P
VL: B1 VL with V29L, D31S, K90Q, G93N, W94Y
notes: IgG
B15: L1.LGF/L3.NY/H3.AQ (antibody, V domains shown)
VH: B1 VH with L105Q
VL: B1 VL with V29L, D31S, K90Q, G93N, W94Y
notes: IgG
B16: L1.LGF/L3.NY/P6E01 (antibody, V domains shown)
VH: B1 VH with A104S, L105G
VL: B1 VL with V29L, D31S, K90Q, G93N, W94Y
notes: IgG
B17: L1.LGF/L3.PY/H3.AP (antibody, V domains shown)
VH: B1 VH with L105P
VL: B1 VL with V29L, D31S, K90Q, G93P, W94Y
notes: IgG
B18: L1.LGF/L3.PY/H3.AQ (antibody, V domains shown)
VH: B1 VH with L105Q
VL: B1 VL with V29L, D31S, K90Q, G93P, W94Y
notes: IgG
B19: P6E01/H3.AQ (antibody, V domains shown)
VH: B1 VH with L105Q
VL: not shown
notes: IgG
B20: P6E01/P6E01 (antibody, V domains shown)
VH: B1 VH with A104S, L105G
VL: not shown
notes: IgG
B21: L3.PY/L3.KF/P6E01 (antibody, V domains shown)
VH: B1 VH with A104S, L105G
VL: B1 VL with G30S, D31S, F32S, H91F, G93P, W94Y
notes: IgG
B22: L3.PY/L3.KY/P6E01 (antibody, V domains shown)
VH: B1 VH with A104S, L105G
VL: B1 VL with G30S, D31S, F32S, H91Y, G93P, W94Y
notes: IgG

The binders below were run against T1, Human BCMA (assay: SPR, IgG immobilised, 25 C).
Protocol: (§1) All experiments were performed on a Bio-Rad Proteon XPR36 surface Plasmon resonance biosensor (Bio-Rad, Hercules, Calif.). […] The analysis temperature for the immobilization was 25° C. and the running buffer was HBS-T+(10 mM HEPES, 150 mM NaCl, 0.05% Tween-20, pH 7.4). Channels were activated in the analyte (horizontal) direction by injecting a mixture of 1 mM ECD and 0.25 mM NHS for 3 minutes at a flow rate of 30 μL/min. IgGs were immobilized on the activated spots by injecting them in the ligand (vertical) direction at 20 μg/mL in 10 mM Acetate pH 4.5 buffer for 1.5 minutes at […]. The activated surfaces were blocked by injecting 1M ethanolamine, pH 8.5 in the analyte direction for 3 minutes at 30 μL/min.
(§2) The analysis temperature for the BCMA binding analysis was 37° C. or 25° C. in a running buffer of HBS-T+, supplemented with 1 mg/mL BSA. A kinetic titration method was employed for the interaction analysis as described in Abdiche, et al. Human BCMA (huBCMA) or cynomolgus monkey BCMA (cyBCMA) analyte was injected in the analyte direction using a series of injections from low to high concentration. The concentrations used were 0.08 nM, 0.4 nM, 2 nM, 10 nM and 50 nM (a 5-membered series, with a 5-fold dilution factor and top concentration of 50 nM). The association time for a given analyte dilution was two minutes. Immediately after the 50 nM BCMA injection, dissociation was monitored for 2 hours.
(§3) The sensorgrams were double-referenced and fit to a 1:1 Langmuir with mass transport kinetic titration model in BIAevaluation Software version 4.1.1 (GE Lifesciences, Piscataway, N.J.).
B1 was tested, and the Kd was 8.76 nM, the “T ½” value was 2.96 min and the koff was 0.0039 s⁻¹. The kon was 445000 M⁻¹ s⁻¹. With B2 the Kd was 3.93 nM, the “T ½” value was 2.51 min and the koff was 0.00461 s⁻¹. For the same binder, the kon was 1.17e+06 M⁻¹ s⁻¹. With B3 the Kd was 4.37 nM, the “T ½” value was 3.32 min and the koff was 0.00348 s⁻¹. The kon was 797000 M⁻¹ s⁻¹. B4 was tested, and the Kd was 4.44 nM, the “T ½” value was 2.87 min and the koff was 0.00403 s⁻¹. The kon was 907000 M⁻¹ s⁻¹. B5 was tested, and the Kd was 1 nM, the “T ½” value was 8.21 min and the koff was 0.00141 s⁻¹. For the same binder, the kon was 1.41e+06 M⁻¹ s⁻¹. With B6 the Kd was 0.73 nM, the “T ½” value was 16 min and the koff was 0.000722 s⁻¹. The kon was 984000 M⁻¹ s⁻¹. For B7, the Kd was 3.7 nM, the “T ½” value was 1.95 min and the koff was 0.00592 s⁻¹. The kon was 1.6e+06 M⁻¹ s⁻¹. In the case of B8, the Kd is reported as 9.49 nM, the “T ½” value is reported as 0.86 min and the koff is reported as 0.0135 s⁻¹. The kon was 1.42e+06 M⁻¹ s⁻¹. With B9 the Kd was 2.87 nM, the “T ½” value was 9.4 min and the koff was 0.00123 s⁻¹. It also gave a kon of 428000 M⁻¹ s⁻¹. B10 was tested, and the Kd was 2.44 nM, the “T ½” value was 5.1 min and the koff was 0.00227 s⁻¹. The kon was 928000 M⁻¹ s⁻¹. B11 was tested, and the Kd was 1.82 nM, the “T ½” value was 12.1 min and the koff was 0.000956 s⁻¹. The kon was 524000 M⁻¹ s⁻¹. With B12 the Kd was 9.08 nM, the “T ½” value was 1.53 min and the koff was 0.00755 s⁻¹. The kon was 831000 M⁻¹ s⁻¹. With B13 the Kd was 1.27 nM, the “T ½” value was 11.9 min and the koff was 0.00097 s⁻¹. For the same binder, the kon was 763000 M⁻¹ s⁻¹. With B14 the Kd was 0.57 nM, the “T ½” value was 21.7 min and the koff was 0.000533 s⁻¹. It also gave a kon of 936000 M⁻¹ s⁻¹. In the case of B15, the Kd is reported as 0.45 nM, the “T ½” value is reported as 38.6 min and the koff is reported as 0.000299 s⁻¹. The kon was 666000 M⁻¹ s⁻¹. For B16, the Kd was 3.32 nM, the “T ½” value was 2.63 min and the koff was 0.0044 s⁻¹. The kon was 1.33e+06 M⁻¹ s⁻¹. With B17 the Kd was 2.12 nM, the “T ½” value was 11.9 min and the koff was 0.000969 s⁻¹. The kon was 457000 M⁻¹ s⁻¹. B18 was tested, and the Kd was 0.95 nM, the “T ½” value was 13 min and the koff was 0.000886 s⁻¹. The kon was 931000 M⁻¹ s⁻¹. In the case of B19, the Kd is reported as 0.41 nM and the “T ½” value is reported as 33.5 min. For B20, the Kd was 4 nM and the “T ½” value was 2.8 min.

The binders below were run against T2, cynomolgus monkey BCMA (cynomolgus monkey, UniProt A0A2K5UD97 1-53) (assay: SPR, IgG immobilised, 25 C).
T2 construct: Soluble analyte in SPR; construct not described; also called cyBCMA; Cyno BCMA
T2 sequence (A0A2K5UD97 entry or part of it): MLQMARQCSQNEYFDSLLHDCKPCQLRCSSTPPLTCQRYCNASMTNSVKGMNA
Protocol: as §1, §2, §3
B1 was tested, and the Kd was 56.7 nM, the “T ½” value was 0.6 min and the koff was 0.018 s⁻¹. For the same binder, the kon was 318000 M⁻¹ s⁻¹. For B2, the Kd was 24.9 nM, the “T ½” value was 0.6 min and the koff was 0.0203 s⁻¹. It also gave a kon of 814000 M⁻¹ s⁻¹. In the case of B3, the Kd is reported as 7 nM, the “T ½” value is reported as 2 min and the koff is reported as 0.00565 s⁻¹. It also gave a kon of 802000 M⁻¹ s⁻¹. B4 was tested, and the Kd was 24.3 nM, the “T ½” value was 0.5 min and the koff was 0.0219 s⁻¹. The kon was 900000 M⁻¹ s⁻¹. In the case of B5, the Kd is reported as 5.2 nM, the “T ½” value is reported as 1.6 min and the koff is reported as 0.00702 s⁻¹. It also gave a kon of 1.36e+06 M⁻¹ s⁻¹. B6 was tested, and the Kd was 1.2 nM, the “T ½” value was 8.5 min and the koff was 0.00136 s⁻¹. The kon was 1.18e+06 M⁻¹ s⁻¹. B7 was tested, and the Kd was 6.4 nM, the “T ½” value was 1.5 min and the koff was 0.00767 s⁻¹. It also gave a kon of 1.2e+06 M⁻¹ s⁻¹. In the case of B8, the Kd is reported as 10.7 nM, the “T ½” value is reported as 0.7 min and the koff is reported as 0.0166 s⁻¹. For the same binder, the kon was 1.55e+06 M⁻¹ s⁻¹. B9 was tested, and the Kd was 41.8 nM, the “T ½” value was 1 min and the koff was 0.0121 s⁻¹. The kon was 290000 M⁻¹ s⁻¹. With B10 the Kd was 27.8 nM, the “T ½” value was 0.7 min and the koff was 0.0154 s⁻¹. It also gave a kon of 554000 M⁻¹ s⁻¹. In the case of B11, the Kd is reported as 6.7 nM, the “T ½” value is reported as 3.3 min and the koff is reported as 0.00355 s⁻¹. The kon was 527000 M⁻¹ s⁻¹. For B12, the Kd was 42.8 nM, the “T ½” value was 0.6 min and the koff was 0.0195 s⁻¹. For the same binder, the kon was 455000 M⁻¹ s⁻¹. B13 was tested, and the Kd was 23.2 nM, the “T ½” value was 0.8 min and the koff was 0.0148 s⁻¹. It also gave a kon of 635000 M⁻¹ s⁻¹. With B14 the Kd was 6.7 nM, the “T ½” value was 2.1 min and the koff was 0.00557 s⁻¹. For the same binder, the kon was 830000 M⁻¹ s⁻¹. For B15, the Kd was 2 nM, the “T ½” value was 7.8 min and the koff was 0.00148 s⁻¹. It also gave a kon of 751000 M⁻¹ s⁻¹. B16 was tested, and the Kd was 11.4 nM, the “T ½” value was 1.1 min and the koff was 0.0105 s⁻¹. For the same binder, the kon was 920000 M⁻¹ s⁻¹. With B17 the Kd was 35.8 nM, the “T ½” value was 0.9 min and the koff was 0.013 s⁻¹. The kon was 364000 M⁻¹ s⁻¹. With B18 the Kd was 4.8 nM, the “T ½” value was 2.4 min and the koff was 0.00477 s⁻¹. It also gave a kon of 1e+06 M⁻¹ s⁻¹.

Each binder was assayed against T1, Human BCMA (assay: SPR, IgG immobilised, 37 C).
How it was run: (§4)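 IgGs were amine-coupled (EDC/NHS, 20 μg/mL in acetate pH 4.5) and BCMA, human or cynomolgus, was injected by kinetic titration at 0.08, 0.4, 2, 10 and 50 nM, 2 min each, in HBS-T+ pH 7.4 with 1 mg/mL BSA at 37° C or 25° C. Dissociation was followed for 2 hours.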
With B21 the Kd was 0.72 nM, the “T ½” value was 5.56 min and the koff was 0.00208 s⁻¹. The kon was 2.88e+06 M⁻¹ s⁻¹. B22 was tested, and the Kd was 0.34 nM, the “T ½” value was 10.7 min and the koff was 0.00109 s⁻¹. It also gave a kon of 3.18e+06 M⁻¹ s⁻¹.

The binders below were run against T2, cynomolgus monkey BCMA (assay: SPR, IgG immobilised, 37 C).
How it was run: as §4
In the case of B21, the Kd is reported as 3.48 nM, the “T ½” value is reported as 1.39 min and the koff is reported as 0.0083 s⁻¹. For the same binder, the kon was 2.39e+06 M⁻¹ s⁻¹. For B22, the Kd was 2.21 nM, the “T ½” value was 2.3 min and the koff was 0.00502 s⁻¹. It also gave a kon of 2.27e+06 M⁻¹ s⁻¹.
